In the RNAGym collection of RNA variant scans (doi:10.7554/elife.80360):

B1: HDV Ribozyme (parent)
chain: GGCCGGCAUGGUCCCAGCCUCCUCGCUGGCGCCGGCUGGGCAACAUUCCGAGGGGACCGUCCCCUCGGUAAUGGCGAAUGGGACCCA

Variants of: B1
Test: self-cleavage, relative activity (ratio to wild type); higher = more cleavage; co-transcriptional
With A78G C84A the self-cleavage was 0.571. For A78G C84U, the self-cleavage was 0.53. Work on A78C C84A yielded a self-cleavage of 0.156. Variant A78C C84U has a self-cleavage of 0.196. With A78C C84G the self-cleavage was 0.11. U79C A87C gave a self-cleavage of 0.35. In the case of U79C A87G, the self-cleavage is reported as 0.47. Variant G74U G76A has a self-cleavage of 0.453. Variant A77C A78U has a self-cleavage of 0.208. A78G G81U gave a self-cleavage of 0.185. For C75A G76C, the self-cleavage was 0.166. With G73C G74C the self-cleavage was 0.133. In the case of U79A C85U, the self-cleavage is reported as 0.855. Work on G73A G80C yielded a self-cleavage of 0.165. Variant G73A G80U has a self-cleavage of 0.153. In the case of G73A G80A, the self-cleavage is reported as 0.0652. Work on A77U C86G yielded a self-cleavage of 0.623. For G73U A78U, the self-cleavage was 0.119. G73U A78G gave a self-cleavage of 0.332. G73U A78C showed a self-cleavage of 0.173. For C75G A87U, the self-cleavage was 0.143. Work on C75G A87G yielded a self-cleavage of 0.108. With G73A A77C the self-cleavage was 0.161. A78G U79G gave a self-cleavage of 0.268. C75U A77C gave a self-cleavage of 0.208. Variant C75U A77G has a self-cleavage of 0.0415. G74A A77C showed a self-cleavage of 0.231. In the case of U79C, the self-cleavage is reported as 0.438. U79A gave a self-cleavage of 0.808. With A77G G81U the self-cleavage was 0.348. With A77G G81C the self-cleavage was 0.256. In the case of A77G G81A, the self-cleavage is reported as 0.287. With G73C C84A the self-cleavage was 0.277. In the case of G73C C84G, the self-cleavage is reported as 0.086. In the case of G73C C84U, the self-cleavage is reported as 0.321. Variant G74C G82U has a self-cleavage of 0.179. G74U G81A gave a self-cleavage of 0.211. A78G A83U gave a self-cleavage of 0.0437. In the case of A78G A83G, the self-cleavage is reported as 0.445. Variant A78C U79G has a self-cleavage of 0.113. A78C U79C showed a self-cleavage of 0.153. C75A C85A gave a self-cleavage of 0.175. For C75G G82C, the self-cleavage was 0.271. Variant G76C A83C has a self-cleavage of 0.201. In the case of A77C G80U, the self-cleavage is reported as 0.219. In the case of G73A U79C, the self-cleavage is reported as 0.186. Work on G73A U79A yielded a self-cleavage of 0.231. With G73A U79G the self-cleavage was 0.248. A77C A83U gave a self-cleavage of 0.312. Variant A77C A83G has a self-cleavage of 0.156. C75A U79C gave a self-cleavage of 0.0707. A77C G82U showed a self-cleavage of 0.0755. Work on G74C G76U yielded a self-cleavage of 0.175. Variant G74C G76A has a self-cleavage of 0.208. For G74C G76C, the self-cleavage was 0.185. For A77U U79C, the self-cleavage was 0.0811. Work on A77U U79A yielded a self-cleavage of 0.32. With G74C A83C the self-cleavage was 0.295. With G74C A83U the self-cleavage was 0.185. For G73C G82A, the self-cleavage was 0.175. G73C G82C gave a self-cleavage of 0.175. In the case of G73C G82U, the self-cleavage is reported as 0.0707. Work on C75U G82U yielded a self-cleavage of 0.296. For G76U A78U, the self-cleavage was 0.475. Variant G76U A78C has a self-cleavage of 0.219. C75A A78U gave a self-cleavage of 0.0852. With G74A U79G the self-cleavage was 0.356. With G74U A87G the self-cleavage was 0.473. With G74U A87C the self-cleavage was 0.554. For G73C G80U, the self-cleavage was 0.141. For A77U C84G, the self-cleavage was 0.403. A77U C84A showed a self-cleavage of 0.291. With A77U G80A the self-cleavage was 0.0923. For A77U G80C, the self-cleavage was 0.136. With A77U G80U the self-cleavage was 0.161. G74U U79C showed a self-cleavage of 0.0963. G74A C85A gave a self-cleavage of 0.657. G73U C75G showed a self-cleavage of 0.086. Variant G73A G76U has a self-cleavage of 0.906. Variant A78C A87U has a self-cleavage of 0.199. Variant A78C A87G has a self-cleavage of 0.127. A78C A87C showed a self-cleavage of 0.199. With A77U A78U the self-cleavage was 0.259.
